In the supplement of paper PMC9732359:
± gives the uncertainty stated by the source.

Assay: protein stability index of a GFP-peptide fusion (yeast GPS) (PSI 1-4); higher = more stable; sorted into four equal gates, so the index is relative within each strain
In short: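 The protein stability index combines read frequencies across sorting gates, each weighted by its gate number and then summed. To obtain those frequencies, a pooled yeast library of GFP fusions to tiled 17-residue yeast protein peptides, on a plasmid also expressing Cherry, was grown to mid-log phase in leucine-free medium. The cells were sorted into four equal gates by GFP/Cherry ratio before plasmid amplification by PCR and Illumina sequencing.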

## WELYTDFNEIVQYLSGA [POP3]
doa10∆
  protein stability index: 2.55 ± 0.13
pdr5∆
  protein stability index: 2.31 ± 0.12
san1∆
  protein stability index: 2.4 ± 0.075
ubr1∆
  protein stability index: 2.43 ± 0.075

## APTGSGKTNIALLTVLK [BRR2]
doa10∆
  protein stability index: 2.88 ± 0.067
pdr5∆
  protein stability index: 3.07 ± 0.073
san1∆
  protein stability index: 3.35 ± 0.052
ubr1∆
  protein stability index: 2.88 ± 0.049

## DTAPKPNIVEIDLDNDE [DLS1]
doa10∆
  protein stability index: 3.27 ± 0.082
pdr5∆
  protein stability index: 3.4 ± 0.058
san1∆
  protein stability index: 3.03 ± 0.079
ubr1∆
  protein stability index: 3.27 ± 0.091

## KSSILTVLQKNSLLLDS [YML103C/NUP188]
doa10∆
  protein stability index: 1.84 ± 0.056
pdr5∆
  protein stability index: 1.71 ± 0.08
san1∆
  protein stability index: 1.56 ± 0.075
ubr1∆
  protein stability index: 2.36 ± 0.085

## TLVSTDNYFNLQLNEAE [SMX3]
doa10∆
  protein stability index: 2.94 ± 0.069
pdr5∆
  protein stability index: 2.91 ± 0.059
san1∆
  protein stability index: 2.82 ± 0.053
ubr1∆
  protein stability index: 2.79 ± 0.048

## GEIGDFFSSDWRFLQIL [POP1]
doa10∆
  protein stability index: 2.73 ± 0.089
pdr5∆
  protein stability index: 2.79 ± 0.09
san1∆
  protein stability index: 2.94 ± 0.066
ubr1∆
  protein stability index: 2.55 ± 0.093

## RTQPWSIMPDLYFYRDP [RPS0A]
doa10∆
  protein stability index: 2.55 ± 0.051
pdr5∆
  protein stability index: 2.85 ± 0.056
san1∆
  protein stability index: 2.85 ± 0.043
ubr1∆
  protein stability index: 2.6 ± 0.055

## EWYLSHLCSGILSSVNR [SRB8]
doa10∆
  protein stability index: 1.41 ± 0.076
pdr5∆
  protein stability index: 1.55 ± 0.079
san1∆
  protein stability index: 1.25 ± 0.095
ubr1∆
  protein stability index: 1.63 ± 0.044

## KLTDEQSSLDVAGLEDK [SIR3]
doa10∆
  protein stability index: 2.68 ± 0.083
pdr5∆
  protein stability index: 2.85 ± 0.13
san1∆
  protein stability index: 2.75 ± 0.083
ubr1∆
  protein stability index: 3.1 ± 0.062

## TRDDLLTILMRSIMKNR [RRI2]
doa10∆
  protein stability index: 2.36 ± 0.082
pdr5∆
  protein stability index: 2.61 ± 0.087
san1∆
  protein stability index: 2.22 ± 0.29
ubr1∆
  protein stability index: 2.75 ± 0.067

## LASSFVNGFLNLGYCND [RPN1]
doa10∆
  protein stability index: 3.2 ± 0.1
pdr5∆
  protein stability index: 3.33 ± 0.097
san1∆
  protein stability index: 3.27 ± 0.049
ubr1∆
  protein stability index: 3.17 ± 0.082

## KKLPRKTHRGLRKVACI [RPL3]
doa10∆
  protein stability index: 1.61 ± 0.062
pdr5∆
  protein stability index: 3.5 ± 0.098
san1∆
  protein stability index: 2.65 ± 0.064
ubr1∆
  protein stability index: 3.23 ± 0.058

## SPDQMRNLQMGLRNQNM [GRR1]
doa10∆
  protein stability index: 3.23 ± 0.12
pdr5∆
  protein stability index: 3.52 ± 0.16
san1∆
  protein stability index: 3.22 ± 0.088
ubr1∆
  protein stability index: 2.71 ± 0.082

## FQNSKSASLFKQRKNPR [RPL24A]
doa10∆
  protein stability index: 2.11 ± 0.097
pdr5∆
  protein stability index: 2.44 ± 0.077
san1∆
  protein stability index: 2.49 ± 0.1
ubr1∆
  protein stability index: 1.85 ± 0.053

## ATTQDQVASIIESFVEL [NUT2]
doa10∆
  protein stability index: 2.11 ± 0.071
pdr5∆
  protein stability index: 2.65 ± 0.076
san1∆
  protein stability index: 2.17 ± 0.15
ubr1∆
  protein stability index: 2.49 ± 0.054

## VTEDGTVVTVVSTAKFS [RPL22A]
doa10∆
  protein stability index: 2.52 ± 0.13
pdr5∆
  protein stability index: 2.81 ± 0.14
san1∆
  protein stability index: 2.2 ± 0.12
ubr1∆
  protein stability index: 2.59 ± 0.061

## DSTSHNNGSSDKSLDSS [MED1]
doa10∆
  protein stability index: 3.04 ± 0.062
pdr5∆
  protein stability index: 3.11 ± 0.067
san1∆
  protein stability index: 3.08 ± 0.07
ubr1∆
  protein stability index: 3.08 ± 0.046

## IRAQNFKSALANLEDII [RRP6]
doa10∆
  protein stability index: 1.89 ± 0.06
pdr5∆
  protein stability index: 1.75 ± 0.062
san1∆
  protein stability index: 2.29 ± 0.091
ubr1∆
  protein stability index: 1.41 ± 0.047

## KDKTKNISAEIIRHEKE [SMC4]
doa10∆
  protein stability index: 2.58 ± 0.12
pdr5∆
  protein stability index: 3.02 ± 0.12
san1∆
  protein stability index: 2.99 ± 0.086
ubr1∆
  protein stability index: 2.91 ± 0.1

## KLVLNISVGESGDRLTR [RPL11A]
san1∆
  protein stability index: 2.6 ± 0.2
ubr1∆
  protein stability index: 1.08 ± 0.14

## KLLIQIDELSNGQRSNS [SMC1]
doa10∆
  protein stability index: 2.42 ± 0.16
pdr5∆
  protein stability index: 2.59 ± 0.11
san1∆
  protein stability index: 3.14 ± 0.1
ubr1∆
  protein stability index: 3.11 ± 0.16

## QTIEMITQIVEKDFCTS [SRB8]
doa10∆
  protein stability index: 2.86 ± 0.054
pdr5∆
  protein stability index: 3.08 ± 0.058
san1∆
  protein stability index: 2.93 ± 0.047
ubr1∆
  protein stability index: 3.02 ± 0.048

## NLNVYIQVFEKPFLKKT [CDC53]
doa10∆
  protein stability index: 2.2 ± 0.071
pdr5∆
  protein stability index: 2.23 ± 0.056
san1∆
  protein stability index: 2.57 ± 0.074
ubr1∆
  protein stability index: 2.63 ± 0.057

## LIDSLPGVDVSAEEQLR [SRB7]
doa10∆
  protein stability index: 2.59 ± 0.064
pdr5∆
  protein stability index: 2.23 ± 0.055
san1∆
  protein stability index: 1.96 ± 0.068
ubr1∆
  protein stability index: 1.84 ± 0.043

## FVKPGTALDAEGAARGT [DIS3]
doa10∆
  protein stability index: 3.1 ± 0.13
pdr5∆
  protein stability index: 3.4 ± 0.2
san1∆
  protein stability index: 3.24 ± 0.095
ubr1∆
  protein stability index: 3.15 ± 0.097

## QPNEISFKYLSNNDEDD [RGR1]
doa10∆
  protein stability index: 2.37 ± 0.053
pdr5∆
  protein stability index: 2.29 ± 0.041
san1∆
  protein stability index: 1.88 ± 0.072
ubr1∆
  protein stability index: 2.36 ± 0.039

## PGDVLDKDAFIPKLKPA [SNU114]
doa10∆
  protein stability index: 1.89 ± 0.094
pdr5∆
  protein stability index: 1.5 ± 0.098
san1∆
  protein stability index: 1.2 ± 0.18
ubr1∆
  protein stability index: 1.71 ± 0.12

## IKVENLNDTTEKSKALE [SMC2]
doa10∆
  protein stability index: 3.07 ± 0.082
pdr5∆
  protein stability index: 3.3 ± 0.092
san1∆
  protein stability index: 3.35 ± 0.052
ubr1∆
  protein stability index: 3.25 ± 0.059

## SKEFSAYVSGLFEIYRD [YJR042W/NUP85]
doa10∆
  protein stability index: 1.76 ± 0.093
pdr5∆
  protein stability index: 2.75 ± 0.15
san1∆
  protein stability index: 2.7 ± 0.19
ubr1∆
  protein stability index: 2.31 ± 0.08

## IPGEEVEETEVPTVPPS [MED4]
doa10∆
  protein stability index: 2.66 ± 0.11
pdr5∆
  protein stability index: 2.42 ± 0.11
san1∆
  protein stability index: 2.44 ± 0.13
ubr1∆
  protein stability index: 2.62 ± 0.059

## NHKIIARVKAFDRHCNM [SMD2]
doa10∆
  protein stability index: 1.7 ± 0.07
pdr5∆
  protein stability index: 1.72 ± 0.08
san1∆
  protein stability index: 2.1 ± 0.086
ubr1∆
  protein stability index: 1.93 ± 0.058

## QQQPQPQYNMNMGMNNM [PGD1]
doa10∆
  protein stability index: 3.02 ± 0.049
pdr5∆
  protein stability index: 2.77 ± 0.05
san1∆
  protein stability index: 3.29 ± 0.041
ubr1∆
  protein stability index: 2.89 ± 0.069

## VDIGGKQHAVLMLGSVN [RRP4]
doa10∆
  protein stability index: 2.06 ± 0.052
pdr5∆
  protein stability index: 2.66 ± 0.052
san1∆
  protein stability index: 2.68 ± 0.06
ubr1∆
  protein stability index: 2.6 ± 0.037

## KHGAKKVAKRTKIKPFI [RPL27A]
doa10∆
  protein stability index: 2.91 ± 0.081
pdr5∆
  protein stability index: 2.97 ± 0.082
san1∆
  protein stability index: 2.95 ± 0.059
ubr1∆
  protein stability index: 3.24 ± 0.035

## ALLNFVLPKIFNSVKSF [SNF2]
doa10∆
  protein stability index: 2.44 ± 0.094
pdr5∆
  protein stability index: 1.71 ± 0.066
san1∆
  protein stability index: 1.98 ± 0.11
ubr1∆
  protein stability index: 1.33 ± 0.043

## TFLLNNKNIDIGLLNKS [RPN2]
doa10∆
  protein stability index: 3.38 ± 0.21
pdr5∆
  protein stability index: 3.11 ± 0.27
ubr1∆
  protein stability index: 2.61 ± 0.11

## GKMVRAQDVALAKKWFL [PRP8]
doa10∆
  protein stability index: 2.34 ± 0.12
pdr5∆
  protein stability index: 2.51 ± 0.14
san1∆
  protein stability index: 2.57 ± 0.23
ubr1∆
  protein stability index: 3.05 ± 0.24

## HCITSITLALADAGIEL [MTR3]
doa10∆
  protein stability index: 1.5 ± 0.071
pdr5∆
  protein stability index: 1.86 ± 0.094
ubr1∆
  protein stability index: 1.55 ± 0.097

## AKLWFYIYLSHETLARS [RPN3]
doa10∆
  protein stability index: 1.69 ± 0.088
pdr5∆
  protein stability index: 1.4 ± 0.086
san1∆
  protein stability index: 1.68 ± 0.15
ubr1∆
  protein stability index: 1.65 ± 0.084

## NNNSSNEKEQLSFINPK [SEC65]
doa10∆
  protein stability index: 2.83 ± 0.045
pdr5∆
  protein stability index: 3.11 ± 0.052
san1∆
  protein stability index: 2.8 ± 0.034
ubr1∆
  protein stability index: 2.92 ± 0.036

## QESLVKLFTTNELMRWP [RPN5]
doa10∆
  protein stability index: 2.96 ± 0.21
pdr5∆
  protein stability index: 3.72 ± 0.3
san1∆
  protein stability index: 3.15 ± 0.12
ubr1∆
  protein stability index: 2.91 ± 0.13

## KREASRGFFDILSLATE [MCD1]
doa10∆
  protein stability index: 3.08 ± 0.083
pdr5∆
  protein stability index: 3.21 ± 0.06
san1∆
  protein stability index: 2.91 ± 0.063
ubr1∆
  protein stability index: 3.11 ± 0.05

## LILIPGETMWVPIKSSK [RPN13]
doa10∆
  protein stability index: 2.17 ± 0.083
pdr5∆
  protein stability index: 2.51 ± 0.068
san1∆
  protein stability index: 2.61 ± 0.057
ubr1∆
  protein stability index: 1.81 ± 0.055

## EPPAGVALPPGSNYNPY [CYT1]
doa10∆
  protein stability index: 2.77 ± 0.12
pdr5∆
  protein stability index: 3.13 ± 0.076
san1∆
  protein stability index: 2.83 ± 0.12
ubr1∆
  protein stability index: 3.15 ± 0.047

## ITLLTRQRELLIAHQRS [GRR1]
doa10∆
  protein stability index: 2.18 ± 0.039
pdr5∆
  protein stability index: 2.14 ± 0.038
san1∆
  protein stability index: 2.01 ± 0.045
ubr1∆
  protein stability index: 1.89 ± 0.029

## GIKAKHDKNIQKLLKQL [ISW2]
doa10∆
  protein stability index: 2.41 ± 0.048
pdr5∆
  protein stability index: 2.45 ± 0.048
san1∆
  protein stability index: 2.45 ± 0.051
ubr1∆
  protein stability index: 2.79 ± 0.033

## KEYENHSGELMRQQSKE [SMC1]
doa10∆
  protein stability index: 2.83 ± 0.1
pdr5∆
  protein stability index: 2.85 ± 0.077
san1∆
  protein stability index: 2.9 ± 0.05
ubr1∆
  protein stability index: 3 ± 0.082

## AQQVPPYGVYHPPFIKY [SIN4]
doa10∆
  protein stability index: 2.99 ± 0.12
pdr5∆
  protein stability index: 1.61 ± 0.094
san1∆
  protein stability index: 2.33 ± 0.074
ubr1∆
  protein stability index: 2.18 ± 0.069

## SMPLEQLIPIILRQRGP [SRB4]
doa10∆
  protein stability index: 2.05 ± 0.057
pdr5∆
  protein stability index: 2.31 ± 0.058
san1∆
  protein stability index: 2.32 ± 0.083
ubr1∆
  protein stability index: 1.91 ± 0.055

## NIKNTNEEATPIPSSET [RRP6]
doa10∆
  protein stability index: 2.61 ± 0.049
pdr5∆
  protein stability index: 2.98 ± 0.052
san1∆
  protein stability index: 2.44 ± 0.048
ubr1∆
  protein stability index: 2.67 ± 0.056

## RPDITMYCRPAPSDFSE [GRR1]
doa10∆
  protein stability index: 2.16 ± 0.12
pdr5∆
  protein stability index: 2.12 ± 0.15
san1∆
  protein stability index: 2.97 ± 0.067
ubr1∆
  protein stability index: 2.17 ± 0.076

## SDDIAENDNLDNVSKNA [YCG1]
doa10∆
  protein stability index: 3.39 ± 0.088
pdr5∆
  protein stability index: 3.34 ± 0.14
san1∆
  protein stability index: 3.25 ± 0.063
ubr1∆
  protein stability index: 3.23 ± 0.085
